Results from patent US20250026827A1 (Alector, published 2025).
Numbering of substitutions follows the chain as printed. Like-named read-outs stand apart in the source and are kept apart here. One block for each binder: values may come before it.

Columns and labels:
[1] = biological target: T1, Soluble, human SIRPβ1-Fc isoform 1 (O00241) (human, UniProt O00241 30-371, limits assumed); assay: ELISA, antigen coated
T1 construct: Whole entry named; also called human SIRPβ1 isoform 1
Text: Recombinant antigen based on the sequence of SIRPβ1 isoform 1 was used for selecting anti-SIRPβ1 antibodies from yeast library pools. To ascertain if the selected anti-SIRPβ1 antibodies cross-reacted with other isoforms of human SIRPβ1 or with cynomolgus SIRPβ1, recombinant antigens based on human SIRPβ1 isoform 3 sequence and cynomolgus SIRPβ1 isoform 1 sequence were produced by transient transfection in HEK293 cells. Purified, Fc-tagged recombinant proteins were adsorbed onto 96-well plates at 1 μg/mL overnight at 4° C. Plates were subsequently washed with PBS+0.05% Tween-20 and blocked with 1% BSA+PBS for 2 hours at room temperature. Antibodies diluted in blocking buffer at 1 μg/mL were added to wells, serially diluted, and allowed to bind antigen overnight at 4° C. The following day, the primary antibodies were removed and anti-human kappa light chain antibody conjugated to horseradish peroxidase diluted 1:10,000 in blocking buffer were added to wells and incubated for 1 hour at room temperature. Plates were washed with PBS+0.05% Tween-20 and 100 μL of TMB substrate solution was added to wells to generate a colorimetric signal proportional to amount of anti-SIRPβ1 antibody bound to antigen. Once the reaction reached an appropriate color intensity, 100 μL of Stop solution was added to quench the enzyme.
(§1) Eight anti-SIRPβ1 antibodies (four parental antibodies and four corresponding affinity matured antibodies) were selected for analysis.

[2] = biological target: T2, human SIRPβ1 isoform 1 on cells (human, UniProt O00241 30-398); assay: flow cytometry
T2 construct: On CHO cells (low level), on BWZ/BW5147.G.1.4 cells (reporter cells co-express human DAP12) or on primary human myeloid cells; also called huSIRPβ1; BWZ-huSIRPβ1

[3] = biological target: T3, human SIRPα on cells (human, UniProt P78324 31-504); assay: flow cytometry
T3 construct: Whole entry

[4] = biological target: T4, mouse SIRPβ1 on CHO cells (mouse); assay: flow cytometry
T4 construct: Whole entry
T4 chain: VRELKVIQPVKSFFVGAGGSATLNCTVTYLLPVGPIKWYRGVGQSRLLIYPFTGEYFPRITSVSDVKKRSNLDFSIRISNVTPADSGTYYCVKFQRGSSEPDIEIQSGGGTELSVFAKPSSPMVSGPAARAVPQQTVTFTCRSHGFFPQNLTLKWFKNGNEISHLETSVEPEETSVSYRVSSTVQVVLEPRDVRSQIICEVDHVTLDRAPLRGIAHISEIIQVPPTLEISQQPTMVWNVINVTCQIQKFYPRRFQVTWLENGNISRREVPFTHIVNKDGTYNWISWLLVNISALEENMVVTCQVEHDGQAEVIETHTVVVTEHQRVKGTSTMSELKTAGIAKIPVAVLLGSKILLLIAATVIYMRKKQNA

[5] = biological target: T5, mouse SIRPα on cells (mouse, UniProt P97797 32-513); assay: flow cytometry;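 as to FOB: antibodies tested at 1 µg/ml for 30 min on ice against receptor-expressing cells, detected with a PE-labelled secondary antibody, read as mean fluorescence intensity relative to background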
T5 construct: whole, on cells
T5 sequence (looked up): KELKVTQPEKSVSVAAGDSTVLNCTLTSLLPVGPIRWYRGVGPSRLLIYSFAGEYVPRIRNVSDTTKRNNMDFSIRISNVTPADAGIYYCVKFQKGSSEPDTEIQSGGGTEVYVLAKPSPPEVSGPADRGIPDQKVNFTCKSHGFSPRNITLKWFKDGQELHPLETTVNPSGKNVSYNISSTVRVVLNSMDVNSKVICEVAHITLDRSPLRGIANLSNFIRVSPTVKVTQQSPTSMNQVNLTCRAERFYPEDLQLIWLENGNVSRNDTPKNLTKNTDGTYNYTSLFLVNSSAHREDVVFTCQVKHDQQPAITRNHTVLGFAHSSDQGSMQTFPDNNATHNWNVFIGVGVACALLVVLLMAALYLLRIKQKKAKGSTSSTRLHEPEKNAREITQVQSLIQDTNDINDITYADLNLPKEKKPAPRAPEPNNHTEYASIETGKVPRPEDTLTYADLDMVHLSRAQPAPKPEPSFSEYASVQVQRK

[6] = biological target: T6, human SIRPβ1-Fc isoform 3 (Q5TFQ8) (human, UniProt Q5TFQ8 30-371, limits assumed); assay: ELISA on plate-coated huSirpB-Fc (Q5TFQ8.1), anti-human kappa-HRP, A450
T6 construct: Whole entry named; made in HEK293 cells; also called human SIRPβ1 isoform 3
Experimental: To ascertain if the selected anti-SIRPβ1 antibodies cross-reacted with other isoforms of human SIRPβ1 or with cynomolgus SIRPβ1, recombinant antigens based on human SIRPβ1 isoform 3 sequence and cynomolgus SIRPβ1 isoform 1 sequence were produced by transient transfection in HEK293 cells. Purified, Fc-tagged recombinant proteins were adsorbed onto 96-well plates at 1 μg/mL overnight at 4° C. Plates were subsequently washed with PBS+0.05% Tween-20 and blocked with 1% BSA+PBS for 2 hours at room temperature. Antibodies diluted in blocking buffer at 1 μg/mL were added to wells, serially diluted, and allowed to bind antigen overnight at 4° C. The following day, the primary antibodies were removed and anti-human kappa light chain antibody conjugated to horseradish peroxidase diluted 1:10,000 in blocking buffer were added to wells and incubated for 1 hour at room temperature. Plates were washed with PBS+0.05% Tween-20 and 100 μL of TMB substrate solution was added to wells to generate a colorimetric signal proportional to amount of anti-SIRPβ1 antibody bound to antigen. Once the reaction reached an appropriate color intensity, 100 μL of Stop solution was added to quench the enzyme.
as §1

[7] = biological target: T2, human SIRPβ1 isoform 1 on cells; assay: flow cytometry; remark: listed apart in the source
Experimental: (§2) Cells were then washed twice and incubated in 100 ul FACS buffer containing 0.5 μg/ml PE-conjugated secondary antibody for 30 minutes on ice. Cells were washed twice in cold FACS buffer and acquired on a BD FACS Canto. Data analysis and calculation of mean fluorescence intensity (MFI) values or 00 positive cells was performed with FlowJo (TreeStar) software version 10.0.7.
(§3) Given the high sequence similarity between receptors of the SIRPβ family, anti-SIRPβ1 antibodies were also screened for cross-reactivity to human SIRPα.

[8] = biological target: T3, human SIRPα on cells; assay: flow cytometry; remark: listed apart in the source
Experimental: as §2, §3

[9] = biological target: T4, mouse SIRPβ1 on CHO cells; assay: flow cytometry
Experimental: as §2, §3

[10] = biological target: T2, human SIRPβ1 isoform 1 on cells; assay: cell binding titration; target not given
[11] = biological target: T7, human SIRPβ1 domain 1 (D1) Fc fusion (human, UniProt O00241 30-148); assay: Octet, IgG avid
T7 construct: Made in HEK293/T cells with a heterologous signal peptide; also called Human SIRPβ1 D1-Fc; Human SIRPβ1-Fc; not shown: C-terminal human IgG1 Fc

[12] = biological target: T8, mouse SIRPα D1-Fc (mouse, UniProt P97797 32-150, limits assumed); assay: Octet
T8 construct: domain: D1
T8 sequence (looked up): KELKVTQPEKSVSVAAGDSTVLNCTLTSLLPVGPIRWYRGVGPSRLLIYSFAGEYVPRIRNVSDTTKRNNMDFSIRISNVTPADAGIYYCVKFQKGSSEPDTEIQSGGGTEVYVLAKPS

[13] = biological target: T3, human SIRPα on cells; assay: flow cytometry; remark: listed apart in the source
[14] = biological target: T4, mouse SIRPβ1 on CHO cells; assay: flow cytometry
[15] = biological target: T5, mouse SIRPα on cells; assay: flow cytometry; remark: listed apart in the source;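 as to FOB: antibodies tested at 1 µg/ml for 30 min on ice against receptor-expressing cells, detected with a PE-labelled secondary antibody, read as mean fluorescence intensity relative to background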
[16] = biological target: T2, human SIRPβ1 isoform 1 on cells; assay: cell-based or functional assay
[17] = biological target: T9, human SIRPα domain 1 (D1) Fc fusion (human, UniProt P78324 32-149); assay: Octet, IgG avid
T9 construct: also called human SIRPα D1-Fc; Human SIRPα Fc; not shown: C-terminal human IgG1 Fc

[18] = biological target: T9, human SIRPα domain 1 (D1) Fc fusion; assay: Octet
[19] = biological target: T10, SIRPγ on Jurkat cells (human, UniProt Q9P1W8 29-387); assay: flow cytometry on Jurkat cells (endogenous SIRPγ), fold over isotype (MFI)
T10 construct: whole, on cells
Experimental: (§4) To determine antigen specificity of anti-SIRPβ1 antibodies of the present disclosure, cell-based affinity measurements were performed to ascertain the apparent affinities of affinity-matured anti-SIRPβ 1 antibodies to cell surface-expressed antigen. BW5147.G.1.4 cells, an immortalized mouse T-cell line, were engineered to overexpress human SIRPβ1 (BWZ-huSIRPβ1) or human SIRPα (BWZ-huSIRPα). Jurkat cells, an immortalized human T cell line, endogenously express SIRPγ.
(§5) In these experiments, two antibodies previously described were used as positive controls: antibody 18D5 (an anti-SIRPβ antibody that cross-reacts with SIRPα and SIRPβ) and antibody KWAR23 (an anti-SIRPβ antibody that cross-reacts with SIRPα, SIRPβ, and SIRPγ). These antibodies were recombinantly produced on a human IgG4 backbone. […] Serial dilutions of each of the anti-SIRPβ1 monoclonal antibodies and control antibodies were added to 10⁵ cells and allowed to achieve binding equilibrium at 4° C. After addition of fluorescently-labeled secondary antibody and brief washing steps, MFI values as a function of titrated antibody concentration were recorded via FACS analysis.
(§6) Receptor bound antibodies were detected by staining cells with anti-human IgG PE secondary antibody (Southern Biotech). Curves were fit using nonlinear regression analysis with Graphpad Prism 6 software.

[20] = biological target: T3, human SIRPα on cells; assay: flow cytometry on BWZ cells overexpressing human SIRPα, fluorescent secondary antibody, MFI
Experimental: as §4, §5, §6

[21] = biological target: T2, human SIRPβ1 isoform 1 on cells; assay: flow cytometry titration, BWZ-huSIRPβ1 cells
Experimental: as §5
In Table 14 below, EC50 values assign relative affinity by adding increasing concentrations of antibody variants to cells overexpressing SIRPβ 1. Receptor bound antibodies were detected by staining cells with anti-human IgG PE secondary antibody (Southern Biotech). Curves were fit using nonlinear regression analysis with Graphpad Prism 6 software.

T6 sequence (Q5TFQ8 30-371 limits assumed, one chain of several): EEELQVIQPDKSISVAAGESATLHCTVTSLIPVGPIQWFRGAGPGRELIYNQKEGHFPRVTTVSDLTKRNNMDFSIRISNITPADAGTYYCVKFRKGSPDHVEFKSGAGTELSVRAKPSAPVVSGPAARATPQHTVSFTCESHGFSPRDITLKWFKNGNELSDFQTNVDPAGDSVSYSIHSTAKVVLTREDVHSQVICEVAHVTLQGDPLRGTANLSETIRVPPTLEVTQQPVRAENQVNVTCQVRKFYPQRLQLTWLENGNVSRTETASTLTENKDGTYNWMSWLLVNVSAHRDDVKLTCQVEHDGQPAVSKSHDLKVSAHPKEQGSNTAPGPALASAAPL
T2 sequence (O00241 30-398): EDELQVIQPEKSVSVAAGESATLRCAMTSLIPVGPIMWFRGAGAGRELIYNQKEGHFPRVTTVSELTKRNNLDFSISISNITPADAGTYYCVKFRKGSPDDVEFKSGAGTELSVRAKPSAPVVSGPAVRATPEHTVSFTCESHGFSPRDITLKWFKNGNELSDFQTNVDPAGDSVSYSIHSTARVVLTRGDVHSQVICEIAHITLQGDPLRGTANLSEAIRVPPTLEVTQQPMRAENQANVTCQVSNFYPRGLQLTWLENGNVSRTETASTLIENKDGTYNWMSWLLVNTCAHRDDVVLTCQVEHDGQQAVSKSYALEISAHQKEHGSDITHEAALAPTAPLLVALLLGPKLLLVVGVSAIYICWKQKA
T1 sequence (O00241 30-371 limits assumed, one chain of several): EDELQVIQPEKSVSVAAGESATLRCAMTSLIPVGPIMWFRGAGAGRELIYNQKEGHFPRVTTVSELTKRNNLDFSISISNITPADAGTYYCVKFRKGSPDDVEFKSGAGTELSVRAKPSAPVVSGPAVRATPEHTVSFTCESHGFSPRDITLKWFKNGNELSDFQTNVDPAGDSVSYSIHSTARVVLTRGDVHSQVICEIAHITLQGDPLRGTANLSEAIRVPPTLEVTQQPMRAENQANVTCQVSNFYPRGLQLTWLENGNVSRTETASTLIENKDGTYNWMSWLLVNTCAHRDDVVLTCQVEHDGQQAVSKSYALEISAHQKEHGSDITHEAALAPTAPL
T10 sequence (Q9P1W8 29-387): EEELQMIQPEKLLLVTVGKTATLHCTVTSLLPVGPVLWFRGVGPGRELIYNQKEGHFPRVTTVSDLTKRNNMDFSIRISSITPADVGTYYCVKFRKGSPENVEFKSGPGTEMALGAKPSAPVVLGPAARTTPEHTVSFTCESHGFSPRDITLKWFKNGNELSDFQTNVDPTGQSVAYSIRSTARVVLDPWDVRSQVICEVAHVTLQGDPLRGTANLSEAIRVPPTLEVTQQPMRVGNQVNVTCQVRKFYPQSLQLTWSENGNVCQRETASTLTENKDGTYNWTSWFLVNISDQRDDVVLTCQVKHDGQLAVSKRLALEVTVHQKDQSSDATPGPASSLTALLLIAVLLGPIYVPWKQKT
T7 sequence (O00241 30-148 limits assumed): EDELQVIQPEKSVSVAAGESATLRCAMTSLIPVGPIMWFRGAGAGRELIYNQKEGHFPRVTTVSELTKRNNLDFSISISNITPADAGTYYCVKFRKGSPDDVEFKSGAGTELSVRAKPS

B1: SB-1 (antibody, V domains shown)
VH: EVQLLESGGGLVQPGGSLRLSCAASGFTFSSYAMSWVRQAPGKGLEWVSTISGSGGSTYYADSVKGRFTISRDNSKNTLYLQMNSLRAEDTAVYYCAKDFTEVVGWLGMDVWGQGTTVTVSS
VL: EIVMTQSPGTLSLSPGERATLSCRASQSVSSSYLAWYQQKPGQAPRLLIYGASSRATGIPDRFSGSGSGTDFTLTISRLEPEDFAVYYCQLLGSSPRTFGGGTKVEIK
notes: IgG; also called SB-1 (p)
EC50 [1]: 0.034 nM
FOB [2]: 5.7 fold over background
FOB [3]: 2.3 fold over background
FOB [4]: 1.1 fold over background
FOB [5]: 1.4 fold over background
binding result [6]: no binding (tested: 1 ug/mL)
FOB [7]: 2 fold over background
FOB [8]: 1 fold over background
FOB [9]: 1 fold over background
EC50 [10]: 0.072 nM
Kd [11]: 0.966 nM
binding result [12]: no binding (tested: 100 nM)
binding result [13]: no binding (tested: 1 ug/ml)
binding result [14]: no binding (tested: 1 ug/ml)
binding result [15]: no binding (tested: 1 ug/ml)
viable Raji-Luc cells with neutrophils and anti-CD20 [16]: ~50%
binding result [17]: no binding (tested: 100 nM)

B3: SB-2 (antibody, V domains shown)
VH: QVQLVESGGGVVQPGRSLRLSCAASGFTFSSYGMNWVRQAPGKGLEWVAVIWYDGSNKYYADSVKGRFTISRDNSKNTLYLQMNSLRAEDTAVYYCARDQTAAAAIWGMDVWGQGTTVTVSS
VL: B1 VL with M4L, L91Q, L92S, G93S, S95H, R97F
notes: IgG; also called SB-2 (p)
EC50 [1]: 0.032 nM
FOB [2]: 8.7 fold over background
FOB [3]: 3 fold over background
FOB [4]: 1.3 fold over background
FOB [5]: 1.1 fold over background
binding result [6]: no binding (tested: 1 ug/mL)
FOB [7]: 2 fold over background
FOB [8]: 1 fold over background
FOB [9]: 1 fold over background
EC50 [10]: 0.235 nM
Kd [11]: 1.97 nM
binding result [12]: no binding (tested: 100 nM)
binding result [13]: no binding (tested: 1 ug/ml)
binding result [14]: no binding (tested: 1 ug/ml)
binding result [15]: no binding (tested: 1 ug/ml)
viable Raji-Luc cells with neutrophils and anti-CD20 [16]: ~50%
binding result [17]: no binding (tested: 100 nM)

B4: SB-8-13 (antibody, V domains shown)
VH: QVQLQESGPGLVKPSETLSLTCAVSGYSISAHYYWGWIRQPPGKGLEWIGSIFHSGHTYYNPSLKSRVTISVDTSKNQFSLKLSSVTAADTAVYYCARGGAMTPAGMDVWGQGTTVTVSS
VL: B1 VL with S54N, L91Q, L92V, G93Y, R97Y
notes: IgG
EC50 [1]: 0.019 nM
binding result [19]: no binding (tested: Log nM about 1.8 (about 60 nM))
binding result [20]: no binding (tested: Log nM about 0.8 (about 7 nM))
binding result [6]: no binding (tested: 1 ug/mL)
FOB [7]: 7 fold over background
FOB [8]: 1 fold over background
FOB [9]: 2 fold over background
EC50 [10]: 0.253 nM
EC50 [21]: 0.199 nM
binding result [14]: no binding (tested: 1 ug/ml)
binding result [17]: no binding (tested: 100 nM)

B8: SB-3 (antibody, V domains shown)
VH: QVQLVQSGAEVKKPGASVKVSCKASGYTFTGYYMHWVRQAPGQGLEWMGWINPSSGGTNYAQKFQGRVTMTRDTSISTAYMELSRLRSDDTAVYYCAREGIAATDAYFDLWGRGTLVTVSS
VL: EIVMTQSPATLSLSPGERATLSCRASQSVSSYLAWYQQKPGQAPRLLIYDASNRATGIPARFSGSGSGTDFTLTISSLEPEDFAVYYCQQRLFHPPTFGGGTKVEIK
notes: IgG
FOB [2]: 2.5 fold over background
FOB [3]: 1.8 fold over background
FOB [4]: 1.3 fold over background
FOB [5]: 1.3 fold over background
binding result [18]: no binding (tested: 100 nM)
binding result [12]: no binding (tested: 100 nM)
binding result [13]: no binding (tested: 1 ug/ml)
binding result [14]: no binding (tested: 1 ug/ml)
binding result [15]: no binding (tested: 1 ug/ml)
viable Raji-Luc cells with neutrophils and anti-CD20 [16]: ~50%

Second part, led by results:

FOB [2]: 1.7 fold over background
FOB [3]: 2 fold over background
FOB [4]: 1.2 fold over background
FOB [5]: 0.9 fold over background
binding result [18]: no binding (tested: 100 nM)
binding result [12]: no binding (tested: 100 nM)
binding result [13]: no binding (tested: 1 ug/ml)
binding result [14]: no binding (tested: 1 ug/ml)
binding result [15]: no binding (tested: 1 ug/ml)
B2: SB-4 (antibody, V domains shown)
VH: QVQLVQSGAEVKKPGASVKVSCKASGYTFTSYGISWVRQAPGQGLEWMGWISAYNGNTNYAQKLQGRVTMTTDTSTSTAYMELRSLRSDDTAVYYCARSGTHFGTYSYSNWFDPWGQGTLVTVSS
VL: B1 VL with M4L, L91Q, L92Y, G93A, S94D, S95A, R97I
notes: IgG
viable Raji-Luc cells with neutrophils and anti-CD20 [16]: ~50%

FOB [7]: 7 fold over background
FOB [8]: 1 fold over background
FOB [9]: 1 fold over background
EC50 [10]: 0.737 nM
EC50 [21]: 0.596 nM
binding result [14]: no binding (tested: 1 ug/ml)
binding result [17]: no binding (tested: 100 nM)
B5: SB-8-15 (antibody, V domains shown)
VH: B4 VH with F53Y, H54Q
VL: B1 VL with S54N, L91Q, L92V, G93Y, R97Y
notes: IgG
binding result [19]: no binding (tested: Log nM about 1.8 (about 60 nM))
binding result [20]: no binding (tested: Log nM about 0.8 (about 7 nM))

FOB [7]: 5 fold over background
FOB [8]: 1 fold over background
FOB [9]: 1 fold over background
EC50 [10]: 0.174 nM
EC50 [21]: 0.203 nM
binding result [14]: no binding (tested: 1 ug/ml)
binding result [17]: no binding (tested: 100 nM)
B6: SB-2-8 (antibody, V domains shown)
VH: QVQLVESGGGVVQPGRSLRLSCAASGFTFLDYGMHWVRQAPGKGLEWVSAISAFAGSTYADSVKGRFTISRDNSKNTLYLQMNSLRAEDTAVYYCARDQTAAAAIWGMDVWGQGTTVTVSS
VL: B1 VL with I2V, M4L, L91Q, L92S, G93S, S95H, R97F
notes: IgG
binding result [19]: no binding (tested: Log nM about 1.8 (about 60 nM))
binding result [20]: no binding (tested: Log nM about 0.8 (about 7 nM))

FOB [7]: 3 fold over background
FOB [8]: 1 fold over background
FOB [9]: 2 fold over background
EC50 [10]: 0.405 nM
EC50 [21]: 8.7 nM
binding result [14]: no binding (tested: 1 ug/ml)
binding result [17]: no binding (tested: 100 nM)
B7: SB-40-20 (antibody, V domains shown)
VH: QVQLVQSGAEVKKPGASVKVSCKASGYTFTSFYISWVRQAPGQGLEWMGIINPSSGHTNYAQKLQGRVTMTTDTSTSTAYMELSSLRSEDTAVYYCARDTGEYSYSPHGMDVWGQGTTVTVSS
VL: EIVLTQSPATLSLSPGERATLSCRASQSVSSYLAWYQQKPGQAPRLLIYDSSNRATGIPARFSGSGSGTDFTLTISSLEPEDFAVYYCQQRDEHPPWTFGGGTKVEIK
notes: IgG
binding result [19]: no binding (tested: Log nM about 1.8 (about 60 nM))
binding result [20]: no binding (tested: Log nM about 0.8 (about 7 nM))
